From paper PMC9482650, “Quantitative fragmentomics allow affinity mapping of interactomes” (Nature Communications, 2022)

T1: DLG3_1, Q92796
T1 sequence (Q92796 125-227, limits assumed, looked up): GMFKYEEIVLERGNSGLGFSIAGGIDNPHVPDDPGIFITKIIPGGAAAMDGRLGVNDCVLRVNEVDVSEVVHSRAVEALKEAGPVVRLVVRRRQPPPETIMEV

T2: PCLO, Q9Y6V0
T2 sequence (Q9Y6V0 4491-4600, limits assumed, looked up): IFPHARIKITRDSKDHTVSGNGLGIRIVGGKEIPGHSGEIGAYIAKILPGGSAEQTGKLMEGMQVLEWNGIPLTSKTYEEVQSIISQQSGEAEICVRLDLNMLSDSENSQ

T3: MPDZ_5, O75970
T3 sequence (O75970 695-796, limits assumed, looked up): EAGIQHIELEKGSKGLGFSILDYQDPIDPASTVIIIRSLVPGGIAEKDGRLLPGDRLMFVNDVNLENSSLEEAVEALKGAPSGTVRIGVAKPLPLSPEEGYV

T4: SNTA1, Q13424
T4 sequence (Q13424 82-180, limits assumed, looked up): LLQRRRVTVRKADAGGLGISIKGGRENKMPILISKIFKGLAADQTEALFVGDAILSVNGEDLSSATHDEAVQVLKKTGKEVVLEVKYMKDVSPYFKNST

T5: NHERF3_1, Q5T2W1
T5 sequence (Q5T2W1 4-100, limits assumed, looked up): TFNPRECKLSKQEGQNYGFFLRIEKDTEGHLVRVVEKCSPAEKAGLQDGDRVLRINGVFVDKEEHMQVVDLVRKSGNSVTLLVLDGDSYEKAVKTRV

T6: MPP6, Q9NZW5
T6 sequence (Q9NZW5 125-219, limits assumed, looked up): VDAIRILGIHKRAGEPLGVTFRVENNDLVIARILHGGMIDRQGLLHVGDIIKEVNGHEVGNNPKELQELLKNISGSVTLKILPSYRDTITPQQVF

T7: DFNB31_3, Q9P202
T7 sequence (Q9P202 811-907, limits assumed, looked up): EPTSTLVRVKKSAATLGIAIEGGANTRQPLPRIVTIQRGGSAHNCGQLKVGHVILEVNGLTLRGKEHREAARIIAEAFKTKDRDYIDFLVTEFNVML

T8: PDZD2_2, O15018
T8 sequence (O15018 329-429, limits assumed, looked up): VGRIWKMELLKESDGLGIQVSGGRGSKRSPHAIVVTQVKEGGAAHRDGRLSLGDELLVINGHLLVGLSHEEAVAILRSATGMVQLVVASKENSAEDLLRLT

T9: SIPA1L2, Q9P2F8
T9 sequence (Q9P2F8 945-1036, limits assumed, looked up): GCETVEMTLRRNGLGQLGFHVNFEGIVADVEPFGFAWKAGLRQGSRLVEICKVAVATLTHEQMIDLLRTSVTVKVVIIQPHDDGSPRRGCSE

T10: LIN7A, O14910
T10 sequence (O14910 103-200, limits assumed, looked up): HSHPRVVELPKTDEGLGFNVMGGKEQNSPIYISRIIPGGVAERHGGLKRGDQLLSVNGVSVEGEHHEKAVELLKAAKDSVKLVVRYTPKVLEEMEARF

T11: NHERF3_4, Q5T2W1
T11 sequence (Q5T2W1 373-468, limits assumed, looked up): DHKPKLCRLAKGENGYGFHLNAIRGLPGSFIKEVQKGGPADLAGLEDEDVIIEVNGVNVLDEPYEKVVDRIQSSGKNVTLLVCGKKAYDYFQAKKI


Columns and labels:
Experiment in all cases: holdup assay
Set-up in all cases: key: below the threshold = too weak to quantify, mostly under pKd 3.1 to 4
Conditions in all cases: plain residues with an end cap or a label only (N-terminal biotin on a linker: ado-ado)
DLG3_1, Q92796 = target: T1, DLG3_1, Q92796
CASK, O14936 = target: CASK, O14936
DLG1_1, Q12959 = target: DLG1_1, Q12959
DLG1_3, Q12959 = target: DLG1_3, Q12959
PCLO, Q9Y6V0 = target: T2, PCLO, Q9Y6V0
MAST1, Q9Y2H9 = target: MAST1, Q9Y2H9
MPDZ_5, O75970 = target: T3, MPDZ_5, O75970
SNTA1, Q13424 = target: T4, SNTA1, Q13424
DLG1_2, Q12959 = target: DLG1_2, Q12959
NHERF3_1, Q5T2W1 = target: T5, NHERF3_1, Q5T2W1
HTRA2, O43464 = target: HTRA2, O43464
IL16_3, Q14005 = target: IL16_3, Q14005
NHERF2_2, Q15599 = target: NHERF2_2, Q15599
MPP6, Q9NZW5 = target: T6, MPP6, Q9NZW5
FRMPD3, Q5JV73 = target: FRMPD3, Q5JV73
GRASP, Q7Z6J2 = target: GRASP, Q7Z6J2
GRIP2_5, Q9C0E4 = target: GRIP2_5, Q9C0E4
FRMPD2_3, Q68DX3 = target: FRMPD2_3, Q68DX3
DFNB31_3, Q9P202 = target: T7, DFNB31_3, Q9P202
GOPC, Q9HD26 = target: GOPC, Q9HD26
PDZD2_2, O15018 = target: T8, PDZD2_2, O15018
GRID2IP_2, A4D2P6 = target: GRID2IP_2, A4D2P6
MAGI2_2, Q86UL8 = target: MAGI2_2, Q86UL8
GRIP2_6, Q9C0E4 = target: GRIP2_6, Q9C0E4
SIPA1L2, Q9P2F8 = target: T9, SIPA1L2, Q9P2F8
LIN7A, O14910 = target: T10, LIN7A, O14910
NHERF3_4, Q5T2W1 = target: T11, NHERF3_4, Q5T2W1

Chain of HTRA2, O43464 (O43464 355-458): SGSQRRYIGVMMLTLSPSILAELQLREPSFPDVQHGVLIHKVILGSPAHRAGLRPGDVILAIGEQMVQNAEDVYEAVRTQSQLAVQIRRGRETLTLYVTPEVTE
Chain of GRIP2_5, Q9C0E4 (Q9C0E4 544-642): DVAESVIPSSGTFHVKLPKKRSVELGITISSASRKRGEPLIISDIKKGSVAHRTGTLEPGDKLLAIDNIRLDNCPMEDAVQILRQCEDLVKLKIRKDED
Chain of GRIP2_6, Q9C0E4 (Q9C0E4 648-740): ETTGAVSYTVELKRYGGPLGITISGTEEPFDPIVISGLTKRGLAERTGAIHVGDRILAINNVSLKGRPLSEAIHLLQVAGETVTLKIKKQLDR
Chain of FRMPD2_3, Q68DX3 (Q68DX3 1073-1166): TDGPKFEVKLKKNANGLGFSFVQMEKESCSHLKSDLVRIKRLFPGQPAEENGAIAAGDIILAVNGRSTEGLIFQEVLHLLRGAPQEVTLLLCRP
Chain of FRMPD3, Q5JV73 (Q5JV73 12-100): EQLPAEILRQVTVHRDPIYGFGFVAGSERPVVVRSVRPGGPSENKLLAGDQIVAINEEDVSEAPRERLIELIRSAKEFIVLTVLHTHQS
Chain of NHERF2_2, Q15599 (Q15599 142-238): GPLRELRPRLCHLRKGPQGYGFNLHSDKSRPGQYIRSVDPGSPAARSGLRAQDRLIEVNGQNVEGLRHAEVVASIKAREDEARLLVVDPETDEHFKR
Chain of IL16_3, Q14005 (Q14005 1107-1207): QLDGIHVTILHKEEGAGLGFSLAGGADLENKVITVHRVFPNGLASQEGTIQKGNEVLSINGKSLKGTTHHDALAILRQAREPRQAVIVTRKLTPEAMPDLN
Chain of MAST1, Q9Y2H9 (Q9Y2H9 962-1065): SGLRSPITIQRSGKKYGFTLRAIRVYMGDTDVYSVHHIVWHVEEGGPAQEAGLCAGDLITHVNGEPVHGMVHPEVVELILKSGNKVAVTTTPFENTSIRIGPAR
Chain of CASK, O14936 (O14936 487-570): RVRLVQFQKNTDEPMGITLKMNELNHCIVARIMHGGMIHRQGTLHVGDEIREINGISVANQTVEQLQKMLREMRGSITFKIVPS
Chain of MAGI2_2, Q86UL8 (Q86UL8 410-522): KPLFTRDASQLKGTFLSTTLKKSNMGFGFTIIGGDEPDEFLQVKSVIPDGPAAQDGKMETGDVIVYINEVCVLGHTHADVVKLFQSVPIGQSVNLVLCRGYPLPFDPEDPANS
Chain of GRASP, Q7Z6J2 (Q7Z6J2 96-193): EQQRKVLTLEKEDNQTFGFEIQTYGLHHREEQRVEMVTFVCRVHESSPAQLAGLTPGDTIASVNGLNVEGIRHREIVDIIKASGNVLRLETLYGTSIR
Chain of GRID2IP_2, A4D2P6 (A4D2P6 272-370): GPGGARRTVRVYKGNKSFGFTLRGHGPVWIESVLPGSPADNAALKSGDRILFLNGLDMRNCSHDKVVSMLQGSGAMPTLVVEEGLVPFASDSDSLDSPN

| Binder | pKd (DLG3_1, Q92796) | pKd (CASK, O14936) | pKd (DLG1_1, Q12959) | pKd (DLG1_3, Q12959) | pKd (PCLO, Q9Y6V0) | pKd (MAST1, Q9Y2H9) | pKd (MPDZ_5, O75970) | pKd (SNTA1, Q13424) | pKd (HTRA2, O43464) | pKd (IL16_3, Q14005) | pKd (NHERF2_2, Q15599) | pKd (FRMPD3, Q5JV73) | pKd (GRIP2_5, Q9C0E4) | pKd (FRMPD2_3, Q68DX3) | pKd (DFNB31_3, Q9P202) | pKd (GOPC, Q9HD26) | pKd (PDZD2_2, O15018) | pKd (GRID2IP_2, A4D2P6) | pKd (GRIP2_6, Q9C0E4) | pKd (SIPA1L2, Q9P2F8) | further results |
| --- | --- | --- | --- | --- | --- | --- | --- | --- | --- | --- | --- | --- | --- | --- | --- | --- | --- | --- | --- | --- | --- |
| PAALPESTHM [SLC9A3, P48764] | below the threshold | below the threshold | below the threshold | below the threshold | below the threshold | 4.63 | below the threshold | below the threshold | below the threshold | below the threshold | 4.94 | below the threshold | below the threshold | below the threshold | below the threshold | below the threshold | below the threshold | 4.31 | below the threshold | below the threshold | pKd (DLG1_2, Q12959): below the threshold; pKd (NHERF3_1, Q5T2W1): 5.37; pKd (MPP6, Q9NZW5): below the threshold; pKd (GRASP, Q7Z6J2): below the threshold; pKd (MAGI2_2, Q86UL8): below the threshold; pKd (LIN7A, O14910): below the threshold; pKd (NHERF3_4, Q5T2W1): 3.52 |
| PSDSVGKDVF [EGLN1, Q9GZT9] | below the threshold | below the threshold | below the threshold | below the threshold | below the threshold | below the threshold | below the threshold | below the threshold | below the threshold | below the threshold | below the threshold | below the threshold | below the threshold | below the threshold | below the threshold | below the threshold | 3.62 | below the threshold | below the threshold | below the threshold | pKd (DLG1_2, Q12959): below the threshold; pKd (NHERF3_1, Q5T2W1): below the threshold; pKd (MPP6, Q9NZW5): below the threshold; pKd (GRASP, Q7Z6J2): 3.7; pKd (MAGI2_2, Q86UL8): below the threshold; pKd (LIN7A, O14910): below the threshold; pKd (NHERF3_4, Q5T2W1): below the threshold |
| SKQFDKNAYV [CLDN10, P78369] | below the threshold | below the threshold | below the threshold | below the threshold | below the threshold | below the threshold | below the threshold | 3.55 | below the threshold | below the threshold | below the threshold | below the threshold | below the threshold | below the threshold | below the threshold | below the threshold | 5.11 | below the threshold | below the threshold | below the threshold | pKd (DLG1_2, Q12959): below the threshold; pKd (NHERF3_1, Q5T2W1): 4.85; pKd (MPP6, Q9NZW5): below the threshold; pKd (GRASP, Q7Z6J2): 3.56; pKd (MAGI2_2, Q86UL8): below the threshold; pKd (LIN7A, O14910): below the threshold; pKd (NHERF3_4, Q5T2W1): below the threshold |
| VYEVPVETKF [SLC26A3, P40879] | below the threshold | below the threshold | below the threshold | 3.6 | below the threshold | 5.07 | below the threshold | below the threshold | below the threshold | below the threshold | 5.04 | below the threshold | below the threshold | 3.52 | 3.94 | below the threshold | 3.72 | below the threshold | below the threshold | below the threshold | pKd (DLG1_2, Q12959): 3.59; pKd (NHERF3_1, Q5T2W1): 5.51; pKd (MPP6, Q9NZW5): below the threshold; pKd (GRASP, Q7Z6J2): 3.81; pKd (MAGI2_2, Q86UL8): below the threshold; pKd (LIN7A, O14910): below the threshold; pKd (NHERF3_4, Q5T2W1): 4.15 |
| VKQYADVEGF [HNRNPK, P61978;P61978-2] | below the threshold | below the threshold | below the threshold | below the threshold | below the threshold | below the threshold | below the threshold | below the threshold | below the threshold | below the threshold | below the threshold | below the threshold | below the threshold | below the threshold | 3.98 | below the threshold | below the threshold | below the threshold | below the threshold | below the threshold | pKd (LIN7A, O14910): below the threshold; pKd (NHERF3_4, Q5T2W1): below the threshold |
